Molecular target: T1, […]n, n = 5 (100-mer), non-glycosylated (human)
T1 construct: non-glycosylated MUC1 peptide with five tandem repeats in series
Assay: peptide ELISA, OD 492 nm; limit of the class, member by Table 2; reference: 20-mer

B1: HMFG-1 (antibody, V domains shown)
VH: QVQLVQSGAEVKKPGASVKVSCKASGYTFSAYWIEWVRQAPGKGLEWVGEILPGSNNSRYNEKFKGRVTVTRDTSTNTAYMELSSLRSEDTAVYYCARSYDFAWFAYWGQGTLVTVSS
VL: DIQMTQSPSSLSASVGDRVTITCKSSQSLLYSSNQKIYLAWYQQKPGKAPKLLIYWASTRESGVPSRFSGSGSGTDFTFTISSLQPEDIATYYCQQYYRYPRTFGQGTKVEIKR
- ratio of the optical density 100-mer/20-mer: > 3

From patent US20150010495A1 (GLYCOTOPE, published 2015)
